The record followed here is patent US20070077578A1, “Diagnosis of (a risk of ) disease and monitoring of therapy” (PrimaGen Holding B.V., priority 2004, published 2007).

This experiment has as its system AC133. Nature of the experiment: AC133 expression per 10,000 cells (quantified by U1A) in patients treated with GCSF. Type of experiment: in vivo, human. Particulars: two patients treated with GCSF, compared to volunteers and all the other patients. As to the method: Isolation of nucleic acids from PBMC and NASBA amplification were performed as described in Example 2 with one modification: U1A was used instead of Beta Actin.
Two samples of patients who have been subjected to treatment with GCSF were tested. GCSF mobilizes stem cells from the bone marrow, so it is expected to find more AC133-expressing cells in the blood after a treatment with GCSF. It is clear from FIG. 16 that the AC133 expression in these two patients is much higher compared to volunteers and all the other patients.

B1: GCSF: mobilizes stem cells from the bone marrow (protein, UniProt P09919 31-207, looked up)
Granulocyte …: TPLGPASSLPQSFLLKCLEQVRKIQGDGAALQEKLVSECATYKLCHPEELVLLGHSLGIPWAPLSSCPSQALQLAGCLSQLHSGLFLYQGLLQALEGISPELGPTLDTLQLDVADFATTIWQQMEELGMAPALQPTQGAMPAFASAFQRRAGGVLVASHLQSFLEVSYRVLRHLAQP
Consider B1, for which the “AC133 expression per 10,000 cells” value was “much higher”.
